The source of these data is the supplement of paper PMC11780869.

The data set deals with Bacillus subtilis. The data set can be described thus: cleaved RNA product abundance (RNA/gDNA barcode ratio) relative to median wild-type variant (ratio to wild type); higher = more accumulation of the downstream cleavage product. As to conditions: cleavage site: cggR-gapA (positions -7 to +36 mutated). The procedure, abridged:
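B. subtilis strains with chromosomally integrated reporter mRNAs (truncated aprE or tetM) holding barcoded, mutagenized RNase Y cleavage-site windows grew in LB at 37°C from OD600 0.0003 to 0.3. Cleaved product abundance is each construct's RNA:gDNA barcode ratio, scaled to the median construct with the unmutated site. It came from sequencing barcodes of gel-selected, reverse-transcribed cleaved RNA and of genomic DNA.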

[1] abbreviates: experiment (reporter, strain, medium): exp 4a: truncated aprE reporter, strain BJT201 with 2% xylose (RNase J1 expressed).
Where [2] appears, read: experiment (reporter, strain, medium): exp 2b: truncated aprE reporter, strain BJT200.

“ACAGACGAAGGAGCCGCAACGAAGTTATTAAGGGATGAATAATCCCTCAATATAAATCTCTCTCACTTATTTAAA”: under setting [1], the “cleaved RNA product abundance” value came out at 0.538.

In the case of “ACAGACGAAGGAGCCGCAACGAAGTTATTAAGGGATGAATAATCCCTCAATATACATATCTCTCACTTATTTAAA”, the “cleaved RNA product abundance” value under setting [1] came out at 0.706. The same measure, in the same setting: the same measure for “ACAGACGAAGGAGCCGCAACGAAGTTATTAAGGGATGAATAATCCCTCAATGTAAATATCTCTCACTTATTTAAA”: 0.11.

On to “ACAGACGAAGGAGCCGCAACGAAGTTATTAAGGGATGAATAATCCCTCACTATAAATATCTCTCACTTATTTAAA”, for which the “cleaved RNA product abundance” value under setting [1] is 0.435. The same measure, in the same setting: the same measure for “ACAGACGAAGGAGCCGCAACGAAGTTATTAAGGGATGAATAATCCTTCAATATAAATATCTCTCACTTATTTAAA”: 0.448; for “ACAGACGAAGGAGCCGCAACGAAGTTATTAAGGGATGAATAATCTCTCAATATAAATATCTCTCACTTATTTAAA”: 0.684.

Take “ACAGACGAAGGAGCCGCAACGAAGTTATTAAGGGATGAATACTCCCTCAATATAAATATCTCTCACTTATTTAAA”: the “cleaved RNA product abundance” value under setting [1] amounted to 0.55.

With “ACAGACGAAGGAGCCGCAACGAAGTTATTAAGGGATGAATTATCCCTCAATATAAATATCTCTCACTTATTTAAA”, under setting [1], the “cleaved RNA product abundance” value is 0.91. On the same count and under the same terms, the same measure for “ACAGACGAAGGAGCCGCAACGAAGTTATTAAGGGATGTATAATCCCTCAATATAAATATCTCTCACTTATTTAAA”: 0.656. Regarding “ACAGACGAAGGAGCCGCAACGAAGTTATTAAGGGTTGAATAATCCCTCAATATAAATATCTCTCACTTATTTAAA”, the “cleaved RNA product abundance” value under setting [1] was 0.508. As for “ACAGACGAAGGAGCCGCAACGAAGTTATTAAGGTATGAATAATCCCTCAATATAAATATCTCTCACTTATTTAAA”, the “cleaved RNA product abundance” value under setting [1] stood at 0.0862. As to “ACAGACGAAGGAGCCGCAACGAAGTTATTAAGTGATGAATAATCCCTCAATATAAATATCTCTCACTTATTTAAA”, the “cleaved RNA product abundance” value was 0.0825 under setting [2] and 0.13 under setting [1]. On to “ACAGACGAAGGAGCCGCAACGAAGTTATTAATGGATGAATAATCCCTCAATATAAATATCTCTCACTTATTTAAA”, for which the “cleaved RNA product abundance” value under setting [1] came to 0.141. The same measure, in the same setting: the same measure for “ACAGACGAAGGAGCCGCAACGAAGTTATTATGGGATGAATAATCCCTCAATATAAATATCTCTCACTTATTTAAA”: 0.483.

On to “ACAGACGAAGGAGCCGCAACGAATTTATTAAGGGATGAATAATCCCTCAATATAAATATCTCTCACTTATTTAAA”, for which the “cleaved RNA product abundance” value was 0.738 under setting [2] and 1.15 under setting [1]. Consider “ACAGACGAAGGAGCCGCAACGATGTTATTAAGGGATGAATAATCCCTCAATATAAATATCTCTCACTTATTTAAA”, for which the “cleaved RNA product abundance” value under setting [1] is 1.36. On to “ACAGACGAAGGAGCCGCAAGAAGTTATTAAGGGATGAATAATCCCTCAATATAAATATCTCTCACTTATTTAAAG”, for which the “cleaved RNA product abundance” value under setting [2] was 1.27 and the “cleaved RNA product abundance” value under setting [1] came out at 0.931.

With “ACAGACGAAGGAGCCGCAAGAAGTTATTAAGGGATTAATAATCCCTCAATATAAATATCTCTCACTTATTTAAAG”, the “cleaved RNA product abundance” value under setting [1] was determined as 0.71. Same read-out and setting: the same measure for “ACAGACGAAGGAGCCGCAAGAAGTTATTAGGGGATGAATAATCCCTCAATATAAATATCTCTCACTTATTTAAAG”: 0.817. “ACAGACGAAGGAGCCGCAAGGAAGCTATTAAGGGATGAATAATCCCTCAATATAAATATCTCTCACTTATTTAAA”: under setting [2], the “cleaved RNA product abundance” value was determined as 0.644. As for “ACAGACGAAGGAGCCGCAAGGAAGTAATTAAGGGATGAATAATCCATCAATATAAATATCTCTCACTTATTTAAA”, the “cleaved RNA product abundance” value under setting [2] came out at 0.122. Consider “ACAGACGAAGGAGCCGCAAGGAAGTAATTAAGGGATGAATAATCCCTCAATATAAATATCTCTCACTTATTTAAA”, for which the “cleaved RNA product abundance” value under setting [1] is 0.182. Still for that read-out and setting: the same measure for “ACAGACGAAGGAGCCGCAAGGAAGTTATAAAGGGATGAATAATCCCTCAATATAAATATCTCTCACTTATTTAAA”: 0.578. With “ACAGACGAAGGAGCCGCAAGGAAGTTATCAAGGGATGAATAATCCCTCAATATAAATATCTCTCACTTATTTAAA”, the “cleaved RNA product abundance” value runs as follows: under setting [2], 0.271; under setting [1], 0.347. For “ACAGACGAAGGAGCCGCAAGGAAGTTATTAACGGATGAATAATCCCTCAATATAAATATCTCTCACTTATTTAAA”, the “cleaved RNA product abundance” value under setting [1] is 0.121. Same read-out and setting: as for “ACAGACGAAGGAGCCGCAAGGAAGTTATTAAGGAATGAATAATCCCTCAATATAAATATCTCTCACTTATTTAAA”, the figure is 0.115; as for “ACAGACGAAGGAGCCGCAAGGAAGTTATTAAGGCATGAATAATCCCTCAATATAAATATCTCTCACTTATTTAAA”, 0.148; as for “ACAGACGAAGGAGCCGCAAGGAAGTTATTAAGGGACGAATAATCCCTCAATATAAATATCTCTCACTTATTTAAA”, 0.614. Turning to “ACAGACGAAGGAGCCGCAAGGAAGTTATTAAGGGATAAATAATCCCTCAATATAAATATCTCTCACTTATTTAAA”, the “cleaved RNA product abundance” value under setting [2] was determined as 0.888 and the “cleaved RNA product abundance” value under setting [1] was 0.919. Take “ACAGACGAAGGAGCCGCAAGGAAGTTATTAAGGGATGAAAAATCCCTCAATATAAATATCTCTCACTTATTTAAA”: the “cleaved RNA product abundance” value under setting [1] came to 0.663. Regarding “ACAGACGAAGGAGCCGCAAGGAAGTTATTAAGGGATGAATAATACCTCAATATAAATATCTCTCACTTATTTAAA”, the “cleaved RNA product abundance” value is, setting by setting: under setting [2], 0.0986; under setting [1], 0.197. For the sequence “ACAGACGAAGGAGCCGCAAGGAAGTTATTAAGGGATGAATAATCCCTCAAAATAAATATCTCTCACTTATTTAAA”, the “cleaved RNA product abundance” value under setting [1] turned out to be 0.314. “ACAGACGAAGGAGCCGCAAGGAAGTTATTAAGGGATGAATAATCCCTCAATATAAAAATCTCTCACTTATTTAAA”: the “cleaved RNA product abundance” value under setting [1] is 0.35. Turning to “ACAGACGAAGGAGCCGCAAGGAAGTTATTAAGGGATGAATAATCCCTCAATATAAATATCTCTCACTTATTTAAA”, the “cleaved RNA product abundance” value under setting [2] worked out at 0.954; the “cleaved RNA product abundance” value under setting [1] came to 0.863; the “cleaved RNA product abundance” value (experiment (reporter, strain, medium): exp 6: tetM reporter, strain 168) is 1.21. Turning to “ACAGACGAAGGAGCCGCAAGGAAGTTATTAAGGGATGAATAATCCCTCAATATACATATCTCTCACTTATTTAAA”, under setting [1], the “cleaved RNA product abundance” value worked out at 0.774. On to “ACAGACGAAGGAGCCGCAAGGAAGTTATTAAGGGATGAATAATCCTTCAATATAAATATCTCTCACTTATTTAAA”, for which, under setting [1], the “cleaved RNA product abundance” value stood at 0.43. The same measure, in the same setting: the same measure for “ACAGACGAAGGAGCCGCAAGGAAGTTATTAAGGGATGAATAATCTCTCAATATAAATATCTCTCACTTATTTAAA”: 0.86; for “ACAGACGAAGGAGCCGCAAGGAAGTTATTAAGGGATGAATAATTCCTCAATATAAATATCTCTCACTTATTTAAA”: 0.793.

On to “ACAGACGAAGGAGCCGCAAGGAAGTTATTAAGGGATGAATCATCCCTCAATATAAATATCTCTCACTTATTTAAA”, for which the “cleaved RNA product abundance” value is 0.824 under setting [2] and 0.633 under setting [1]. “ACAGACGAAGGAGCCGCAAGGAAGTTATTAAGGGATGATTAATCCCTCAATATAAATATCTCTCACTTATTTAAA”: the “cleaved RNA product abundance” value under setting [1] came out at 0.959. The same measure, in the same setting: the same measure for “ACAGACGAAGGAGCCGCAAGGAAGTTATTAAGGTATGAATAATCCCTCAATATAAATATCTCTCACTTATTTAAA”: 0.101. Same read-out and setting: as for “ACAGACGAAGGAGCCGCAAGGAAGTTATTAAGTGATGAATAATCCCTCAATATAAATATCTCTCACTTATTTAAA”, the figure is 0.149. Regarding “ACAGACGAAGGAGCCGCAAGGAAGTTATTAATGGATGAATAATCCCTCAATATAAATATCTCTCACTTATTTAAA”, the “cleaved RNA product abundance” value was 0.144 under setting [2] and 0.162 under setting [1].

Consider “ACAGACGAAGGAGCCGCAAGGTAGTTATTAAGGGATGAATAATCCCTCAATATAAATATCTCTCACTTATTTAAA”, for which, under setting [1], the “cleaved RNA product abundance” value was determined as 1.

Turning to “ACAGACGAAGGAGCCGCAATAAAGTTATTAAGGGATGAATAATCCCTCAATATAAATATCTCTCACTTATTTAAA”, the “cleaved RNA product abundance” value is 1.03 under setting [2] and 1.09 under setting [1].

For the sequence “ACAGACGAAGGAGCCGCAATGAAATTATTAAGGGATGAATAATCCCTCAATATAAATATCTCTCACTTATTTAAA”, the “cleaved RNA product abundance” value is, setting by setting: under setting [2], 0.716; under setting [1], 0.875. As to “ACAGACGAAGGAGCCGCAATGAAATTATTAAGGGATTAATAATCCCTCAATATAAATATCTCTCACTTATTTAAA”, the “cleaved RNA product abundance” value under setting [1] turned out to be 0.695. On the same count and under the same terms, the same measure for “ACAGACGAAGGAGCCGCAATGAACTTATTAAGGGATGAATAATCCCTCAATATAAATATCTCTCACTTATTTAAA”: 0.405; for “ACAGACGAAGGAGCCGCAATGAAGATATTAAGGCATGAATAATCCCTCAATATAAATATCTCTCACTTATTTAAA”: 0.138; for “ACAGACGAAGGAGCCGCAATGAAGATATTAAGGGATGAATAATCCCTCAATATAAATATCTCTCACTTATTTAAA”: 0.667. The same measure, in the same setting: the same measure for “ACAGACGAAGGAGCCGCAATGAAGTAATTAAGGGATGAATAATCCCTCAATATAAATATCTCTCACTTATTTAAA”: 0.364. As for “ACAGACGAAGGAGCCGCAATGAAGTCATTAAGGGATGAATAATCCCTCAATATAAATATCTCTCACTTATTTAAA”, the “cleaved RNA product abundance” value under setting [2] worked out at 0.189. “ACAGACGAAGGAGCCGCAATGAAGTTAATAAGGGATGAATAATCCTTCAATATAAATATCTCTCACTTATTTAAA”: under setting [1], the “cleaved RNA product abundance” value worked out at 0.263. On the same count and under the same terms, as for “ACAGACGAAGGAGCCGCAATGAAGTTACTAAGGGATGAATAATCCCTCAATATAAATATCTCTCACTTATTTAAA”, the figure is 0.249. Turning to “ACAGACGAAGGAGCCGCAATGAAGTTATCAAGGGATGAATAATCCCTCAATATAAATATCTCTCACTTATTTAAA”, under setting [1], the “cleaved RNA product abundance” value is 0.487. In the case of “ACAGACGAAGGAGCCGCAATGAAGTTATTAAAGGATGAATAATCCCTCAATATAAATATCTCTCACTTATTTAAA”, the “cleaved RNA product abundance” value is, setting by setting: under setting [2], 0.181; under setting [1], 0.181.
